Earlier results in article PMC12914960, “Repurposing a detrimental antibody epitope as targeted therapeutics for sepsis and rheumatoid arthritis” (Military Medical Research, 2026).

How the values were obtained:
[1] = test system: Differentiated human macrophages; settings: TN; ref [21]; cited from earlier work
Description: Crucially, our findings reveal a striking dichotomy in the biological effects of full-length TN and its derived peptide, P2-1, on HMGB1-mediated detrimental macrophage responses. […] We propose that full-length TN, when complexed with HMGB1, may engage unidentified macrophage surface receptor(s), thereby facilitating receptor-mediated endocytosis of TN/HMGB1 complexes and ...

[2] = test system: Differentiated human macrophages; settings: full-length TN; ref [21]; cited from earlier work
Description: To investigate P2-1’s effect on HMGB1 endocytosis, differentiated human macrophages were exposed to Alexa Fluor 555-labeled HMGB1 under various conditions (Fig. 5d).

human PBMCs = settings: TN; ref [21]; cited from earlier work
Description: To validate these RNA-seq findings, we quantified HMGB1-induced cytokine/chemokine protein levels using cytokine antibody arrays. Consistent with our RNA-seq data, HMGB1 stimulation led to a significant increase in the protein levels of various cytokines (e.g., TNF, IL-6, and IL-10) and chemokines (e.g., CXCL5/ENA-78, CXCL1/GRO-α, CXCL8/IL-8, CCL2/MCP-1, and CCL7/MCP-3) in human PBMCs (Fig. 6b), confirming its potent immunomodulating activities.

B1: TN: full-length human tetranectin (protein, UniProt P05452 1-202, looked up)
chain: MELWGAYLLLCLFSLLTQVTTEPPTQKPKKIVNAKKDVVNTKMFEELKSRLDTLAQEVALLKEQQALQTVCLKGTKVHMKCFLAFTQTKTFHEASEDCISRGGTLGTPQTGSENDALYEYLRQSVGNEAEIWLGLNDMAAEGTWVDMTGARIAYKNWETEITAQPDGGKTENCAVLSGAANGKWFDKRCRDQLPYICQFGIV
modifications: full-length
notes: full-length human tetranectin
HMGB1 endocytosis and macrophage pyroptosis, in words [1]: enhances HMGB1 endocytosis and subsequent macrophage pyroptosis | HMGB1 cellular uptake, in words [2]: significantly increased HMGB1 uptake | HMGB1-induced cytokines/chemokines, in words (human PBMCs): did not affect HMGB1-induced cytokines (e.g., IL-6) or chemokines (e.g., MCP-1)
